The subject of the data set is Escherichia coli TOP10. The experiment in a line: shrunken log2 fold change of peptide-encoding DNA abundance (4.5 h post-induction vs induction); higher = less antimicrobial activity (less host growth inhibition). Particulars: time post-induction: 4.5 h; library: site-saturation at positions 5, 18, 19, 20.
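Also: peptides expressed intracellularly from a pBAD plasmid library in pooled LB shake-flask culture, induced with 0.3% L-arabinose, DNA abundance read by NGS, three biological replicates, DESeq2 with apeglm shrinkage.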

Consider RRIRARPPRLPRPRPRPHKVPRP, for which the “shrunken log2 fold change” value worked out at 0.31.

In the case of RRIRQRPPRLPRPRPRPWCAPRP, the “shrunken log2 fold change” value amounted to 0.0231.

For the sequence RRIRFRPPRLPRPRPRPEYHPRP, the “shrunken log2 fold change” value is -0.202.

For the sequence RRIRFRPPRLPRPRPRPQQFPRP, the “shrunken log2 fold change” value amounted to 0.0682.

On to RRIRGRPPRLPRPRPRPASHPRP, for which the “shrunken log2 fold change” value is 0.252.

Consider RRIRSRPPRLPRPRPRPVEVPRP, for which the “shrunken log2 fold change” value stood at 0.233.

With RRIRGRPPRLPRPRPRPAVDPRP, the “shrunken log2 fold change” value was 0.896.

Take RRIRGRPPRLPRPRPRPIRSPRP: the “shrunken log2 fold change” value was -0.0333.

Take RRIRIRPPRLPRPRPRPADCPRP: the “shrunken log2 fold change” value was determined as 0.035.

In the case of RRIRTRPPRLPRPRPRPSECPRP, the “shrunken log2 fold change” value was -0.166.

Take RRIRLRPPRLPRPRPRPWLKPRP: the “shrunken log2 fold change” value was found to be 0.0827.

RRIRWRPPRLPRPRPRPIGQPRP: the “shrunken log2 fold change” value turned out to be 0.00299.

In the case of RRIRARPPRLPRPRPRPTVMPRP, the “shrunken log2 fold change” value is 0.497.

Consider RRIRARPPRLPRPRPRPLKKPRP, for which the “shrunken log2 fold change” value came to 0.0777.

With RRIRRRPPRLPRPRPRPVSHPRP, the “shrunken log2 fold change” value was determined as 0.218.

As for RRIRPRPPRLPRPRPRPARGPRP, the “shrunken log2 fold change” value came to 0.606.

Take RRIRPRPPRLPRPRPRPNGSPRP: the “shrunken log2 fold change” value is 0.0884.

On to RRIRPRPPRLPRPRPRPTMTPRP, for which the “shrunken log2 fold change” value amounted to 0.0633.

Take RRIRYRPPRLPRPRPRPSKDPRP: the “shrunken log2 fold change” value is -0.642.

In the case of RRIRLRPPRLPRPRPRPRQLPRP, the “shrunken log2 fold change” value is 0.153.

Consider RRIRERPPRLPRPRPRPNMLPRP, for which the “shrunken log2 fold change” value was -0.753.

On to RRIRERPPRLPRPRPRPVIFPRP, for which the “shrunken log2 fold change” value was -0.392.

On to RRIRPRPPRLPRPRPRPEYGPRP, for which the “shrunken log2 fold change” value was -0.167.

In the case of RRIRMRPPRLPRPRPRPTRGPRP, the “shrunken log2 fold change” value was determined as 1.57.

As to RRIRLRPPRLPRPRPRPKGKPRP, the “shrunken log2 fold change” value was -0.106.

On to RRIRRRPPRLPRPRPRPWQQPRP, for which the “shrunken log2 fold change” value was -0.0108.

In the case of RRIRNRPPRLPRPRPRPRPLPRP, the “shrunken log2 fold change” value was 0.402.

Take RRIRYRPPRLPRPRPRPACDPRP: the “shrunken log2 fold change” value was -0.00452.

Take RRIRMRPPRLPRPRPRPIRRPRP: the “shrunken log2 fold change” value is -0.168.

In the case of RRIRMRPPRLPRPRPRPNIRPRP, the “shrunken log2 fold change” value was -0.169.

With RRIRPRPPRLPRPRPRPCDYPRP, the “shrunken log2 fold change” value was 0.218.

On to RRIRCRPPRLPRPRPRPGFWPRP, for which the “shrunken log2 fold change” value was 0.226.

Consider RRIRHRPPRLPRPRPRPMSGPRP, for which the “shrunken log2 fold change” value is -0.0285.

In the case of RRIRWRPPRLPRPRPRPCTYPRP, the “shrunken log2 fold change” value was -0.473.

On to RRIRKRPPRLPRPRPRPQREPRP, for which the “shrunken log2 fold change” value was 0.749.

Turning to RRIRPRPPRLPRPRPRPWSYPRP, the “shrunken log2 fold change” value was -0.214.

As to RRIRDRPPRLPRPRPRPVPNPRP, the “shrunken log2 fold change” value is -0.0123.

Consider RRIRSRPPRLPRPRPRPTKAPRP, for which the “shrunken log2 fold change” value worked out at 0.266.

Consider RRIRRRPPRLPRPRPRPQCKPRP, for which the “shrunken log2 fold change” value was -0.268.

Consider RRIRARPPRLPRPRPRPAWVPRP, for which the “shrunken log2 fold change” value was 0.235.

Turning to RRIRHRPPRLPRPRPRPSVSPRP, the “shrunken log2 fold change” value was -0.0167.

As for RRIRVRPPRLPRPRPRPSGLPRP, the “shrunken log2 fold change” value amounted to 0.0687.

Consider RRIRGRPPRLPRPRPRPFTQPRP, for which the “shrunken log2 fold change” value is -0.0854.

As to RRIRRRPPRLPRPRPRPWGCPRP, the “shrunken log2 fold change” value was found to be 0.0658.

Turning to RRIRQRPPRLPRPRPRPGQGPRP, the “shrunken log2 fold change” value was -0.000829.

RRIRGRPPRLPRPRPRPFINPRP: the “shrunken log2 fold change” value was -0.165.

With RRIRARPPRLPRPRPRPQGTPRP, the “shrunken log2 fold change” value came to 0.451.

On to RRIRKRPPRLPRPRPRPWNDPRP, for which the “shrunken log2 fold change” value was found to be 0.0299.

For the sequence RRIRIRPPRLPRPRPRPKHSPRP, the “shrunken log2 fold change” value was -0.447.

Take RRIRNRPPRLPRPRPRPQRPPRP: the “shrunken log2 fold change” value was 0.206.

With RRIRWRPPRLPRPRPRPFCGPRP, the “shrunken log2 fold change” value turned out to be 0.437.

RRIRARPPRLPRPRPRPLACPRP: the “shrunken log2 fold change” value came out at 0.695.

As to RRIRPRPPRLPRPRPRPESAPRP, the “shrunken log2 fold change” value is 0.396.

Take RRIRCRPPRLPRPRPRPKFLPRP: the “shrunken log2 fold change” value is -0.258.

As for RRIRCRPPRLPRPRPRPDHHPRP, the “shrunken log2 fold change” value was -0.246.

As for RRIRFRPPRLPRPRPRPHKLPRP, the “shrunken log2 fold change” value is -0.377.

On to RRIRVRPPRLPRPRPRPNVQPRP, for which the “shrunken log2 fold change” value was -0.0734.

RRIRDRPPRLPRPRPRPTGIPRP: the “shrunken log2 fold change” value stood at 0.26.

For RRIRERPPRLPRPRPRPWSRPRP, the “shrunken log2 fold change” value was found to be 0.0483.

As to RRIRNRPPRLPRPRPRPPASPRP, the “shrunken log2 fold change” value worked out at 0.486.

As to RRIRPRPPRLPRPRPRPQMGPRP, the “shrunken log2 fold change” value was -0.0457.

Consider RRIRNRPPRLPRPRPRPNPIPRP, for which the “shrunken log2 fold change” value came out at 0.0101.

Turning to RRIRYRPPRLPRPRPRPVLEPRP, the “shrunken log2 fold change” value is -0.0835.

Turning to RRIRCRPPRLPRPRPRPTMTPRP, the “shrunken log2 fold change” value is 0.106.

As to RRIRGRPPRLPRPRPRPEWPPRP, the “shrunken log2 fold change” value was 1.13.

Regarding RRIRCRPPRLPRPRPRPITEPRP, the “shrunken log2 fold change” value was -0.206.

For the sequence RRIRCRPPRLPRPRPRPGEPPRP, the “shrunken log2 fold change” value was found to be 0.0366.

For RRIRRRPPRLPRPRPRPVDDPRP, the “shrunken log2 fold change” value is -0.0484.

Consider RRIRTRPPRLPRPRPRPLRCPRP, for which the “shrunken log2 fold change” value came to 0.108.

Turning to RRIRDRPPRLPRPRPRPHLYPRP, the “shrunken log2 fold change” value came out at 0.0039.

For the sequence RRIRIRPPRLPRPRPRPIYTPRP, the “shrunken log2 fold change” value is -0.728.

Consider RRIRSRPPRLPRPRPRPIMLPRP, for which the “shrunken log2 fold change” value was -0.156.

For the sequence RRIRQRPPRLPRPRPRPYRWPRP, the “shrunken log2 fold change” value was -0.0412.

RRIRIRPPRLPRPRPRPAMWPRP: the “shrunken log2 fold change” value is 0.13.

Regarding RRIRKRPPRLPRPRPRPCAGPRP, the “shrunken log2 fold change” value came to 0.257.

RRIRLRPPRLPRPRPRPNHSPRP: the “shrunken log2 fold change” value came out at 0.135.

RRIRMRPPRLPRPRPRPTLSPRP: the “shrunken log2 fold change” value stood at 0.377.

On to RRIRCRPPRLPRPRPRPTYDPRP, for which the “shrunken log2 fold change” value was -0.609.

In the case of RRIRWRPPRLPRPRPRPMLPPRP, the “shrunken log2 fold change” value is -0.0127.

In the case of RRIRLRPPRLPRPRPRPPCEPRP, the “shrunken log2 fold change” value was 0.123.

On to RRIRYRPPRLPRPRPRPERDPRP, for which the “shrunken log2 fold change” value was 0.0217.

As to RRIRHRPPRLPRPRPRPVHQPRP, the “shrunken log2 fold change” value came to 0.0507.

Consider RRIRPRPPRLPRPRPRPMVHPRP, for which the “shrunken log2 fold change” value was 0.137.

As to RRIRDRPPRLPRPRPRPLRWPRP, the “shrunken log2 fold change” value was found to be 0.274.

As to RRIRTRPPRLPRPRPRPPYWPRP, the “shrunken log2 fold change” value stood at 0.0831.

For RRIRMRPPRLPRPRPRPVTNPRP, the “shrunken log2 fold change” value is 0.0903.

With RRIRSRPPRLPRPRPRPMWNPRP, the “shrunken log2 fold change” value was -0.204.

For RRIRKRPPRLPRPRPRPQRAPRP, the “shrunken log2 fold change” value was 0.944.

Take RRIRFRPPRLPRPRPRPSVAPRP: the “shrunken log2 fold change” value is 0.882.

As to RRIRNRPPRLPRPRPRPQNQPRP, the “shrunken log2 fold change” value was -0.212.

As for RRIRARPPRLPRPRPRPYIEPRP, the “shrunken log2 fold change” value was -0.44.

With RRIRNRPPRLPRPRPRPFPGPRP, the “shrunken log2 fold change” value was -0.00992.

In the case of RRIRKRPPRLPRPRPRPILEPRP, the “shrunken log2 fold change” value turned out to be 0.261.

Take RRIRVRPPRLPRPRPRPSHFPRP: the “shrunken log2 fold change” value is -0.443.

Take RRIRARPPRLPRPRPRPIFRPRP: the “shrunken log2 fold change” value worked out at 0.205.

As to RRIRMRPPRLPRPRPRPPMQPRP, the “shrunken log2 fold change” value was 0.504.

RRIRVRPPRLPRPRPRPNGAPRP: the “shrunken log2 fold change” value is -0.0189.

As for RRIRIRPPRLPRPRPRPGYDPRP, the “shrunken log2 fold change” value is -0.576.

Regarding RRIRNRPPRLPRPRPRPFNHPRP, the “shrunken log2 fold change” value was -1.02.

With RRIRFRPPRLPRPRPRPDFGPRP, the “shrunken log2 fold change” value was determined as 0.0422.

As to RRIRKRPPRLPRPRPRPQHPPRP, the “shrunken log2 fold change” value came to 0.105.

As to RRIRIRPPRLPRPRPRPSLDPRP, the “shrunken log2 fold change” value was -0.564.

As to RRIRPRPPRLPRPRPRPGINPRP, the “shrunken log2 fold change” value is -0.178.

Regarding RRIRGRPPRLPRPRPRPIWEPRP, the “shrunken log2 fold change” value came out at 0.019.

Take RRIRSRPPRLPRPRPRPFNQPRP: the “shrunken log2 fold change” value is -0.295.

Take RRIRRRPPRLPRPRPRPFGNPRP: the “shrunken log2 fold change” value is -0.18.

Turning to RRIRPRPPRLPRPRPRPQMRPRP, the “shrunken log2 fold change” value was 0.806.

Turning to RRIRDRPPRLPRPRPRPGDSPRP, the “shrunken log2 fold change” value turned out to be 0.13.

For RRIRMRPPRLPRPRPRPWMCPRP, the “shrunken log2 fold change” value is -0.01.

Consider RRIRMRPPRLPRPRPRPRRHPRP, for which the “shrunken log2 fold change” value is 1.02.

In the case of RRIRYRPPRLPRPRPRPQMRPRP, the “shrunken log2 fold change” value was -0.00174.

Turning to RRIRFRPPRLPRPRPRPAAEPRP, the “shrunken log2 fold change” value was determined as 0.558.

Turning to RRIRTRPPRLPRPRPRPARYPRP, the “shrunken log2 fold change” value is 0.189.

For RRIRGRPPRLPRPRPRPGNVPRP, the “shrunken log2 fold change” value stood at 0.22.

For RRIRGRPPRLPRPRPRPHGEPRP, the “shrunken log2 fold change” value amounted to 0.164.

As to RRIRQRPPRLPRPRPRPIIRPRP, the “shrunken log2 fold change” value came to 0.00525.

Regarding RRIRSRPPRLPRPRPRPRYDPRP, the “shrunken log2 fold change” value is -0.444.

Regarding RRIRTRPPRLPRPRPRPQQRPRP, the “shrunken log2 fold change” value was -0.0699.

On to RRIRSRPPRLPRPRPRPDSGPRP, for which the “shrunken log2 fold change” value is -0.02.

As to RRIRARPPRLPRPRPRPGWCPRP, the “shrunken log2 fold change” value came out at 0.465.

Take RRIRCRPPRLPRPRPRPIRVPRP: the “shrunken log2 fold change” value stood at 0.161.

RRIRPRPPRLPRPRPRPSTCPRP: the “shrunken log2 fold change” value was -0.11.

As for RRIRMRPPRLPRPRPRPLLIPRP, the “shrunken log2 fold change” value was -0.397.

With RRIRTRPPRLPRPRPRPGRGPRP, the “shrunken log2 fold change” value was 0.605.

On to RRIRLRPPRLPRPRPRPNYCPRP, for which the “shrunken log2 fold change” value was -0.31.

Values taken from the supplement of paper PMC9112550, “Optimization of the antimicrobial peptide Bac7 by deep mutational scanning” (BMC Biology, 2022).
